Laboratory results: US20080248008A1, “Inhibitors of Protein Kinase a Anchoring” (priority 2004, published 2008)
Entries after “also recorded” stand apart in the source; their conditions may differ. Values belong to the substance of their own block, whether it stands above or below them. Ends that are not written are not given here.

How the values were obtained:
PKA-RIIα [1] = molecular target: T1, PKA-RIIα (Homo sapiens, UniProt P13861); experiment: Displacement of PKA-RII from the particulate fraction in T cells; format: cell-based; parameters: endogenous in cells; host or cells: human peripheral blood CD3+ T cells; conditions: 25 μM or 50 μM
T1 sequence (P13861 whole entry): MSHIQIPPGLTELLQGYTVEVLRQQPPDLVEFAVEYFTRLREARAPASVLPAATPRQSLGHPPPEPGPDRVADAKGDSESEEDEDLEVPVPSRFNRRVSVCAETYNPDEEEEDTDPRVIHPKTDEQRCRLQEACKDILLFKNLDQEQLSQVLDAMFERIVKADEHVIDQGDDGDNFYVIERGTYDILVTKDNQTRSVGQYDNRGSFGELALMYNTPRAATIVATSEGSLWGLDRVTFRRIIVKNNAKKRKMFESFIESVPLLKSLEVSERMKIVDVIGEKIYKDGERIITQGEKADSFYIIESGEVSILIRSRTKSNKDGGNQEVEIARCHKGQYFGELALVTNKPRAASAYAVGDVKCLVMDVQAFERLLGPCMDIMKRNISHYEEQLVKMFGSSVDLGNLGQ
Protocol: Displacement of PKA-RII from the particulate Fraction in T-cells. Negatively selected CD3^+ T-cells (20×10^6/3 ml/well) were cultured in 6-well plates with 0-50 μM Arg11-SuperAKAPIS (or 0-50 μM M3-Arg11) for 12 hours. Cells were lysed in 250 μl lysis buffer (50 mM Tris pH 7.4, 100 mM NaCl, 5 mM EDTA, 50 mM NaF, 10 mM Na-pyrofosfat, 1 mM Na3VO4, 1 mM PMSF, 0.7% triton X-100) and centrifuged at 14 000×g for 10 min. The sedimented proteins were resuspended in loading dye before being resolved by SDS/PAGE and detected by immunoblotting.
To assess the effect of MEME3-Arg11 on anchoring of PKA type II, T cells were treated with MEME3-Arg11 or Arg11-super-AKAP-is (as a positive control) and particulate fractions were isolated, followed by 10% PAGE and blotting onto a PVDF membrane (fraction no. 2-4, FIG. 17 in upper panel) and analysed by immunoblotting using antibodies against PKA-RIIα (FIG. 17, upper panel). The levels of PKA-RIIα in the particulate fractions were measured by densitometry of the autoradiograms (lower panel). The level of PKA-RIIα was set relative to that of the internal standard PKCα.

PKA-RIIα [2] = molecular target: T1, PKA-RIIα; experiment: Immunofluorescence of PKA-RIIα at centrosomes in human T cells; format: cell-based; parameters: endogenous in cells; host or cells: human peripheral blood CD3+ T cells; conditions: human peripheral blood T cells
Protocol: Blots were developed by using Supersignal West Pico substrate (Pierce). For immunofluorescence polyclonal and monoclonal antibodies against RIα (Biogenesis), RIIα (Transduction laboratories) and AKAP450 (A24, Tasken et al., 2001, J. Biol. Chem, 276:21999-22002) were used as primary antibodies. Secondary antibodies (all Molecular Probes) were Alexa-488 conjugated anti-mouse and anti-rabbit IgG (both goat) and Alexa-555 anti-rabbit IgG (goat).
Immunofluorescence analysis of cells was performed as previously described (Collas, P. et al., 1996, J. Cell Biol. 135, 1715-1725). RI was detected by using an anti-RI monoclonal antibody (Transduction Laboratories) as a primary antibody at a […] and Alexa-488 as a secondary antibody (1:600, Goat anti Mouse IgGs, Molecular Probes). Immunofluorescence was performed on Y1 cells attached to collagen/fibronectin coated coverslips. Mitochondria were stained using MitoTracker Red CMXRos (Molecular Probes) in fresh medium with incubation at 37° C. for 30 min prior to cell fixation. All cells were washed in PBS, fixed with 3% paraformaldehyde and permeabilised using 0.1% Triton X-100. […] Alternatively, fluorescently labeled cells were examined using a Leica TCS SP1 confocal fluorescence microscope (Leica, Heidelberg, Germany) equipped with an Ar (488 nm) and two He/Ne (543 and 633 nm) laser lines. […]

RI (A98S) = molecular target: T2, RI (A98S) (Bos taurus, UniProt P00514, A98S); experiment: R-overlay (solid-phase binding) of 32P-labelled RI on membrane-synthesized peptides; parameters: species or system bovine; conditions: for RI binding (RI-32P-overlay, autoradiography): peptides on membrane, qualitative
T2 construct: made in house; host or cells: E. coli BL21 (B121 [sic])
T2 sequence (P00514 whole entry A98S): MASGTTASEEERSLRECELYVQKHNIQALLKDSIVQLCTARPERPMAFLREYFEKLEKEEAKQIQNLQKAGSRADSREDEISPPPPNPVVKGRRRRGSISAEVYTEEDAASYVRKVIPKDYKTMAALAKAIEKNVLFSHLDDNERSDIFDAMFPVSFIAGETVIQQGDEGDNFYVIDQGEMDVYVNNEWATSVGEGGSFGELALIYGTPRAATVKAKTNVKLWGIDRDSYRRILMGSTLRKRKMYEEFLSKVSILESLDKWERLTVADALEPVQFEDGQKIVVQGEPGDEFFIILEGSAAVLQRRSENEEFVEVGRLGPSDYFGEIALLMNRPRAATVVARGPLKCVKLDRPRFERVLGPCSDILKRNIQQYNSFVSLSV
Protocol: Autospot Peptide Array. Peptide arrays were synthesized on cellulose paper by using an Autospot Robot ASP222 (ABiMED, Langenfeld, Germany) as described (Frank, R., 1992, Tetrahedron 48, 123-132) or Multipep automated peptide synthesizer (INTAVIS Bioanalytical Instruments AG, Koeln, Germany) as described (Frank, R., 1992, Tetrahedron 48, 123-132).
R-overlay. R-overlays were conducted as described, using ^32P-labeled recombinant murine RII (Hausken, Z. E., et al., 1998 in Protein Targeting Protocols, ed. Clegg, R. A. (Humana, Totowa, N.J.), Vol. 88, pp. 47-64) or recombinant bovine RI (A98S) or by cold RI-overlay where bound RIα was detected by Western blot. Cold RI-overlay was performed by incubating the membranes with 250 nM RI overnight at 4° C., then the membranes were washed five times in TBST for 5 min. Detection of RI was performed using an anti-RI rabbit polyclonal antibody (Santa Cruz) at a concentration of 0.2 μg/μl for 1 hour at 4° C. Then the membranes were washed five times for 5 minutes in PBS followed by incubation with HRP-conjugated anti-rabbit IgGs (1:5000) for 1 hour at 4° C. The membranes were washed in PBS as described above before detection by Supersignal West Dura Extended Duration Substrate (Pierce).
Densitometric analysis. The densitometric analysis was performed using Scion Image (www.scioncorp.com) (Scion Coorperation, Mo., USA) or Quantity One version 4.5.0, (BioRad).

- reduction of PKA-RIIα in particulate fraction (PKA-RIIα [1]): approximately 80%
- displacement of PKA-RIIα from centrosomes (PKA-RIIα [2]): specifically displaced PKA-RIIα
Substance: Arg11-super-AKAP-is: RIIα specific peptide, SuperAKAPIS (QIEYVAKQIVDYAIHQA) with eleven arginine residues (also: eleven arginine residues attached (Arg11), place not given here) [reference compound]

Substance: LKQYANQLASQVIKEATE [PDSM]
- RI binding (RI-32P-overlay, autoradiography) (RI (A98S)): same RI binding affinity as the full length PDSM sequence; also recorded: much higher RIα affinity compare to that of PV-38; also recorded: higher binding to RIα

- R-binding of D-amino acid derivatives (RIα and RIIα overlay) (RI (A98S); peptidomimetics on membrane): accepted
Substance: LEQYANQLADQIIKEATe [E18e]

Substance: DELKQYANQLASQVIKEATE [PDSM consensus sequence]
- RI binding (RI-32P-overlay, autoradiography) (RI (A98S)): higher affinity for RI than the other R-binding motifs
